# Measurements reported in article PMC6934851, “Yeast R2TP Interacts with Extended Termini of Client Protein Nop58p” (Scientific Reports, 2019).
# T1: Maltose Binding Protein (MBP)-fused Nop58p_447 (S. cerevisiae, UniProt Q12499 1-447)
# T1 chain: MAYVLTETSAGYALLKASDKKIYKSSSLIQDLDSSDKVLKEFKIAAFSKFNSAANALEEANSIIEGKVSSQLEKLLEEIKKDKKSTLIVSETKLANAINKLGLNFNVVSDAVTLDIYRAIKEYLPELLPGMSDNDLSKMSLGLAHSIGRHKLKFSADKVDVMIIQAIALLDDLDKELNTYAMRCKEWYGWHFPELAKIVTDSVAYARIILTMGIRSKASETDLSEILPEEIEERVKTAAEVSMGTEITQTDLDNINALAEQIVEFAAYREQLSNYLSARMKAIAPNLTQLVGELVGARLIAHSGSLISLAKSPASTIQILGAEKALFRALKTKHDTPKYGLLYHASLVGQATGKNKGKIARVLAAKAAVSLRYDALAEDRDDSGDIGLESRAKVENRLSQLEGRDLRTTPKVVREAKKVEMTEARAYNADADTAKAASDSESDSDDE
# B1: Maltose Binding Protein (MBP)-fused Nop58p_447 (domain or fragment, S. cerevisiae, UniProt Q12499 1-447, looked up)
# chain: MAYVLTETSAGYALLKASDKKIYKSSSLIQDLDSSDKVLKEFKIAAFSKFNSAANALEEANSIIEGKVSSQLEKLLEEIKKDKKSTLIVSETKLANAINKLGLNFNVVSDAVTLDIYRAIKEYLPELLPGMSDNDLSKMSLGLAHSIGRHKLKFSADKVDVMIIQAIALLDDLDKELNTYAMRCKEWYGWHFPELAKIVTDSVAYARIILTMGIRSKASETDLSEILPEEIEERVKTAAEVSMGTEITQTDLDNINALAEQIVEFAAYREQLSNYLSARMKAIAPNLTQLVGELVGARLIAHSGSLISLAKSPASTIQILGAEKALFRALKTKHDTPKYGLLYHASLVGQATGKNKGKIARVLAAKAAVSLRYDALAEDRDDSGDIGLESRAKVENRLSQLEGRDLRTTPKVVREAKKVEMTEARAYNADADTAKAASDSESDSDDE
# notes: In the cross-linking and cryo-EM sections the text often calls this MBP fusion simply Nop58p_447; also called MBP-Nop58p_447; MBP-Nop58_447; source: E. coli, purified (amylose, monoQ, gel filtration); not shown: MBP, N-terminal, kept
# Columns and labels:
# Rvb1p = molecular target: T2, Rvb1p (yeast, UniProt Q03940 1-463); assay: cross-linking; co-purified MBP-Nop58p_447-R2TP complex, BS3-d0/BS3-d4 for 30 min, SDS-PAGE, trypsin, mass spectrometry; conditions: both partners purified
# T2 construct: Rvb1p, yeast AAA+ ATPase; Subunit as it stood in the MBP-Nop58p_447-R2TP complex; also called Ruv1p; source: purified as Rvb1/2p heterocomplex, within reconstituted R2TP
# Rvb2p = molecular target: T3, Rvb2p (yeast, UniProt Q12464 1-471); assay: as above; conditions: both partners purified
# T3 construct: Rvb2p, yeast AAA+ ATPase; Subunit as it stood in the MBP-Nop58p_447-R2TP complex; also called Ruv2p; source: purified as Rvb1/2p heterocomplex, within reconstituted R2TP
# [1] = molecular target: T1, Maltose Binding Protein (MBP)-fused …; assay: ITC
# [2] = molecular target: B1; assay: ITC; MBP-Nop58p in the sample cell (MBP-Nop58p_447 at 7.8 μM), Pih1p-Tah1p in the injector at 99.6 μM; 25 °C; 25 mM HEPES, 150 mM NaCl, 5% glycerol, 5 mM beta-ME, pH 7.5; One Site model; conditions: both partners purified
# [3] = molecular target: B1; assay: cross-linking; co-purified MBP-Nop58p_447-R2TP complex, BS3-d0/BS3-d4 for 30 min, SDS-PAGE, trypsin, mass spectrometry; conditions: both partners purified
# T2 sequence (Q03940 whole entry): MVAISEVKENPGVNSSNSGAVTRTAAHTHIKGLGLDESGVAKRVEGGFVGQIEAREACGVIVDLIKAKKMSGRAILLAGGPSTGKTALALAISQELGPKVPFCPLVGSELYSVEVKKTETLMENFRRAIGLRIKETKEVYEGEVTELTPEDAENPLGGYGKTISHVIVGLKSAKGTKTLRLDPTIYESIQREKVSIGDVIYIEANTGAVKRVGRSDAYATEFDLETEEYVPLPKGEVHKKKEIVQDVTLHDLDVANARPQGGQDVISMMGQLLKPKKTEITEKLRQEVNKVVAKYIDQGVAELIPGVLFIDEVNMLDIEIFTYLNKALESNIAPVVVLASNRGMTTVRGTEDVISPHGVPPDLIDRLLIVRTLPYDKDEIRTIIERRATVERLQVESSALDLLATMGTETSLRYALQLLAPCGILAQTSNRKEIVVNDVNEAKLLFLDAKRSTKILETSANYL
# T3 sequence (Q12464 whole entry): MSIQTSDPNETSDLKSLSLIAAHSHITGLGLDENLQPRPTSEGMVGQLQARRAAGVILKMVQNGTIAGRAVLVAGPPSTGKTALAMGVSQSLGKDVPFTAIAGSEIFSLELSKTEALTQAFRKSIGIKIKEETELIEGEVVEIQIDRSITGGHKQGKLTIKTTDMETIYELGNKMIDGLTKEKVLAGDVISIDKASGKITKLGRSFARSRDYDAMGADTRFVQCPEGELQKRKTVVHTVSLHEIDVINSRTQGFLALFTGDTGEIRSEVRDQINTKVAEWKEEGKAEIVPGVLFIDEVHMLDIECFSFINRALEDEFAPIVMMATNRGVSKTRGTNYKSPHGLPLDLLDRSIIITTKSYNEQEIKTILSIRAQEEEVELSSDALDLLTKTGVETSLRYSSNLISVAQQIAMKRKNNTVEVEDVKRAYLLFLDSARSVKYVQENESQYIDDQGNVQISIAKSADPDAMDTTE
Binder,binding result (Rvb1p),binding result (Rvb2p),Kd [1] [nM],stoichiometry N [2],binding result [3]
B1,binds,binds,,,
"Pih1p-Tah1p heterodimer (complex, yeast, Tah1p, yeast, YCR060W; also called His-Pih1p-Tah1p; source: purified) chain 1: MADFLLRPIKQRHRNEDKYVSVDAADGSVSKIEPIADFVIKTKLLSANGPEKLQDGRKVFINVCHSPLVPKPEVDFNARIVFPLIIQNEWEIPIITSCYRMDHDKKGQECYVWDCCINSDCSRWICDDIQLREILVEWCLESCEIRDSVVLCRDRIAFPKMKKKGAELPALEVLNDELHQDYKAKMHKIIEEEAGDPMSILRGRNDDGDDNNDPDDGTLPPLFPIENKISGAKIEEIDKNEIAHRNLKQAPAPAPAPHEQQEDVPEYEVKMKRFKGAAYKLRILIENKAPNSKPDRFSPSYNFAENILYINGKLSIPLPRDIVVNAADIKIFHIRKERTLYIYI chain 2: MSQFEKQKEQGNSLFKQGLYREAVHCYDQLITAQPQNPVGYSNKAMALIKLGEYTQAIQMCQQGLRYTSTAEHVAIRSKLQYRLELAQGAVGSVQIPVVEVDELPEGYDRS",,,440,1,
"Pih1p (natural protein, yeast, UniProt P38768 1-344, looked up, Subunit as it stood in the MBP-Nop58p_447-R2TP complex; source: purified as His-Pih1p-Tah1p, within reconstituted R2TP) MADFLLRPIKQRHRNEDKYVSVDAADGSVSKIEPIADFVIKTKLLSANGPEKLQDGRKVFINVCHSPLVPKPEVDFNARIVFPLIIQNEWEIPIITSCYRMDHDKKGQECYVWDCCINSDCSRWICDDIQLREILVEWCLESCEIRDSVVLCRDRIAFPKMKKKGAELPALEVLNDELHQDYKAKMHKIIEEEAGDPMSILRGRNDDGDDNNDPDDGTLPPLFPIENKISGAKIEEIDKNEIAHRNLKQAPAPAPAPHEQQEDVPEYEVKMKRFKGAAYKLRILIENKAPNSKPDRFSPSYNFAENILYINGKLSIPLPRDIVVNAADIKIFHIRKERTLYIYI",binds,,,,binds
